This note sets out measurements from publication PMC1802567.

For one data set, the target named is T1, p73α (UniProt O15350 1-636).
T1 sequence: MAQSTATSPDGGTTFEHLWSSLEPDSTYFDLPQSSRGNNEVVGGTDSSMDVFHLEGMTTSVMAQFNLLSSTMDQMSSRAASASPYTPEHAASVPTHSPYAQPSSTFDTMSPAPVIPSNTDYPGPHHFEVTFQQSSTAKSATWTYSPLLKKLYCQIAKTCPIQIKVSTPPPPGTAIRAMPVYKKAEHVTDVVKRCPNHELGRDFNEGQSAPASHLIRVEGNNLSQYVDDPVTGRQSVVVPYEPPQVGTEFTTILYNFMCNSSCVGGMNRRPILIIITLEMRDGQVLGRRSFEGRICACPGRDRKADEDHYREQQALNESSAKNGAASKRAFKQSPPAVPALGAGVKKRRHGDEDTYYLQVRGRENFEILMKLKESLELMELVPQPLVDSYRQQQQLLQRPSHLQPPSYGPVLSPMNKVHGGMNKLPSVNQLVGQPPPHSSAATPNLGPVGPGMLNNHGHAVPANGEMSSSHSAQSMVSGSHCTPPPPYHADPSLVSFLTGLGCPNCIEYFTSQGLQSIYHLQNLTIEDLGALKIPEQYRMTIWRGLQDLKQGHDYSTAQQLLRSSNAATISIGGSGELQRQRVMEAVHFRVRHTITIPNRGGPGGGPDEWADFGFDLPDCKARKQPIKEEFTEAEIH
The data set can be described thus: EMSA. (In general: In EMSA bound probe runs differently from free probe, usually more slowly.)

For the next data set, the target named is T2, p73β(C262S) (UniProt O15350-2 1-499, C262S).
T2 sequence: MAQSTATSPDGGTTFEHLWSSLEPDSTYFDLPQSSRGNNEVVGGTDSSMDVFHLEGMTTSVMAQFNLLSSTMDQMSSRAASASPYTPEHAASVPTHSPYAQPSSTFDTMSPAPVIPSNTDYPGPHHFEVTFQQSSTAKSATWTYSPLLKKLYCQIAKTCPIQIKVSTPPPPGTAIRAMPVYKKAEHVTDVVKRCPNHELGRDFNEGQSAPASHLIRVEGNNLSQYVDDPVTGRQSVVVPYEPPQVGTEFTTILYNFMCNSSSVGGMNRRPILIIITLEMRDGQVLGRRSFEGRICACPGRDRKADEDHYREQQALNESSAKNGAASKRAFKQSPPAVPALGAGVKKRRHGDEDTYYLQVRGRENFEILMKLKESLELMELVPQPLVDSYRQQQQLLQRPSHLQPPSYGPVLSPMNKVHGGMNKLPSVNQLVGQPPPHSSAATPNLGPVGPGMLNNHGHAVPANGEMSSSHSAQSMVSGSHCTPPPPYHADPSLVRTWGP
The data set can be described thus: DNA immunobinding assay.

Data set [1] has as its target T3, p53 (UniProt P04637 1-393). The data set can be described thus: EMSA.
The target of another data set is T4, ΔNp63β (UniProt Q9H3D4-4 1-461).
T4 sequence: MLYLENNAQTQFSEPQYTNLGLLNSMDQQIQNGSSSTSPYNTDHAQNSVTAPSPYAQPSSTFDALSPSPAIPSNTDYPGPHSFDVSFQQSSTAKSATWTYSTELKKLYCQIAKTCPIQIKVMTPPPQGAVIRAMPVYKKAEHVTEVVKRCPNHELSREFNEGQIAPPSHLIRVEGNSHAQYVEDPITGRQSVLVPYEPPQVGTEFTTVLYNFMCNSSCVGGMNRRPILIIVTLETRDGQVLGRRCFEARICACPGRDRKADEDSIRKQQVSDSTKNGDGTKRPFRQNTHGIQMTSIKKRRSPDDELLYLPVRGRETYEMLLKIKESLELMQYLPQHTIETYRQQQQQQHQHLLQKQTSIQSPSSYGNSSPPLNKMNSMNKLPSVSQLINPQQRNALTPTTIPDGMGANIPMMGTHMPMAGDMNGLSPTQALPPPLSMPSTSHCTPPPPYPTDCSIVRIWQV
The data set can be described thus: EMSA.

Data set [2] concerns the target T5, p73β (UniProt O15350-2 1-499).
T5 sequence: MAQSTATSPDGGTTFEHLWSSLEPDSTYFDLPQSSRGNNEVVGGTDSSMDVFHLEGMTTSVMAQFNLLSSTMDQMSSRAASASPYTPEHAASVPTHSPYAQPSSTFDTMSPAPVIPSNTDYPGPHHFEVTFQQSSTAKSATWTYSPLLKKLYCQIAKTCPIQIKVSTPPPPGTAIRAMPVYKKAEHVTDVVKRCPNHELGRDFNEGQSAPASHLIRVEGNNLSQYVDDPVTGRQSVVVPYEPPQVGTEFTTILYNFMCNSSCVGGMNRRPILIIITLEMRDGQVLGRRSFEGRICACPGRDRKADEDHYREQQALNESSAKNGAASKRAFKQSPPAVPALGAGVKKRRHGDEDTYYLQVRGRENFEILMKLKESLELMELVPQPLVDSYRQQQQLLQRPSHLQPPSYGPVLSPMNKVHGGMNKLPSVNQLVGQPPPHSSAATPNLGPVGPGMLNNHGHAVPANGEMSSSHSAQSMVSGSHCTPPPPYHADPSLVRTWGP
The data set can be described thus: EMSA.

The target of data set [3] is T5, p73β. The data set can be described thus: EMSA. The source holds these as a separate data set.
The target of data set [4] is T3, p53. The data set can be described thus: EMSA. The source holds these as a separate data set.
Data set [5] has as its target T5, p73β. The data set can be described thus: EMSA. The source holds these as a separate data set.
In data set [6] the target is T5, p73β. The data set can be described thus: EMSA. This is another data set of the same source.

Like-named read-outs stand apart in the source and are kept apart here.

T3 sequence (P04637 whole entry): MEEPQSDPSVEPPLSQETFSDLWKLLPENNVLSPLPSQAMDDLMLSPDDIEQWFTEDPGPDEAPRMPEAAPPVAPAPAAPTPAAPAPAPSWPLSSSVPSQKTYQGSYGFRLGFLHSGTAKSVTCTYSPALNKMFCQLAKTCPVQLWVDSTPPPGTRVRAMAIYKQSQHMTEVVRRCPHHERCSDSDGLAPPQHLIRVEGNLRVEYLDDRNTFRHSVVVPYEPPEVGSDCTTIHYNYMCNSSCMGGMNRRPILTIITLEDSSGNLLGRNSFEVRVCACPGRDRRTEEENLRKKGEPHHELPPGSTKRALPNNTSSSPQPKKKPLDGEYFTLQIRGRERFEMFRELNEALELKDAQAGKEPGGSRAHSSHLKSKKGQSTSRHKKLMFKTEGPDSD

B1: p21 5' site (dsDNA)
DNA 1: AGCTAGTAGAGCGAACATGTCCCAACATGTTGGCGTGCTGCAGC
DNA 2: GCTGCAGCACGCCAACATGTTGGGACATGTTCGCTCTACTAGCT
Turning to B1, the binding result in the data set with p73α, with p53 [1], with ΔNp63β and in the data set with p73β [2] was “binds” throughout. The binding signal with p73β(C262S) worked out at 1.5 fold over background.

B2: PPC (dsDNA)
DNA 1: AGCTAGTAGAGCTGGCATGTCCCGACTTGTTAGCGTGCTGCAGC
DNA 2: GCTGCAGCACGCTAACAAGTCGGGACATGCCAGCTCTACTAGCT
Consider B2, for which the binding result with p73β [3] and with p53 [4] was “binds” each time.

B3: PIG3 (dsDNA)
DNA 1: AGCTAGTAGAGCCAGCTTGCCCACCCATGCTCGCGTGCTGCAGC
DNA 2: GCTGCAGCACGCGAGCATGGGTGGGCAAGCTGGCTCTACTAGCT
In the case of B3, the binding result with p53 [1] and with p73β [5] was “binds” throughout.

B4: PUMA (dsDNA)
DNA 1: AGCTAGTAGAGCCTGCAAGTCCTGACTTGTCCGCGTGCTGCAGC
DNA 2: GCTGCAGCACGCGGACAAGTCAGGACTTGCAGGCTCTACTAGCT
In the case of B4, the binding result with p73β [6] is “binds”.
